Measurements taken from publication PMC8093829.

T1: recombinant L-asparaginase refolded from E. coli inclusion bodies, P00805
T1 chain: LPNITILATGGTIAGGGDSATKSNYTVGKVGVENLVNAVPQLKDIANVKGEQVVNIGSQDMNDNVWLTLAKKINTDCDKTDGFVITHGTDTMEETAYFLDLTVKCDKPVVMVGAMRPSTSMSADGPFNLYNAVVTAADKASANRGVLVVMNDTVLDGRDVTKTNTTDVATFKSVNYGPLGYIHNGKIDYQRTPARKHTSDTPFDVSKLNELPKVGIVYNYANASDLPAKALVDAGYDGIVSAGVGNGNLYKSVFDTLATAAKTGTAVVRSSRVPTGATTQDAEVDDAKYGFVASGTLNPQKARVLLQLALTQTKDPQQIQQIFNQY

T2: commercial L-asparaginase 5,000 IU/ml, Bionase 5K, P00805
T2 chain: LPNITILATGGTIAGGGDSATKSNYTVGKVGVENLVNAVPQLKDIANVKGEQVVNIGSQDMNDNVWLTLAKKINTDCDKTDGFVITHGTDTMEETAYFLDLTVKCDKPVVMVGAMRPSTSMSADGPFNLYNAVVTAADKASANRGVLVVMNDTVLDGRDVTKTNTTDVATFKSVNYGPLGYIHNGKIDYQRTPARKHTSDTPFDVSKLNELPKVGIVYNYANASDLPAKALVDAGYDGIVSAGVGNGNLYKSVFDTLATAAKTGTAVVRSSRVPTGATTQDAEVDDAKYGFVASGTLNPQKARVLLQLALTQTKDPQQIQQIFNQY


How the values were obtained:
[1] = target: T1, recombinant L-asparaginase refolded …; experiment: SEC; Superdex 200 PG 16/600, equilibrated with 20 mM Tris-HCl, 10% (v/v) glycerol, pH 8.5, eluted in 50 mM Tris-HCl, 0.5 ml/min; DEAE-purified, concentrated refolded L-asparaginase; settings: remark: other sources report otherwise
[2] = target: T2, commercial L-asparaginase 5,000 IU/ml, …; experiment: SEC; HPLC, TSK gel G3000SWxl, 20 mM Tris-HCl and 100 mM NaCl; commercial L-asparaginase concentrated to 2 mg/ml; settings: remark: other sources report otherwise

stoichiometry N [1] | stoichiometry N [2] | tetrameric population (%) [2] [%] | Binder
4 | – | – | recombinant L-asparaginase refolded from E. coli inclusion bodies, P00805 23-348 (enzyme) LPNITILATGGTIAGGGDSATKSNYTVGKVGVENLVNAVPQLKDIANVKGEQVVNIGSQDMNDNVWLTLAKKINTDCDKTDGFVITHGTDTMEETAYFLDLTVKCDKPVVMVGAMRPSTSMSADGPFNLYNAVVTAADKASANRGVLVVMNDTVLDGRDVTKTNTTDVATFKSVNYGPLGYIHNGKIDYQRTPARKHTSDTPFDVSKLNELPKVGIVYNYANASDLPAKALVDAGYDGIVSAGVGNGNLYKSVFDTLATAAKTGTAVVRSSRVPTGATTQDAEVDDAKYGFVASGTLNPQKARVLLQLALTQTKDPQQIQQIFNQY
– | 4 | 81.4 | commercial L-asparaginase 5,000 IU/ml, Bionase 5K, P00805 23-348 (enzyme) LPNITILATGGTIAGGGDSATKSNYTVGKVGVENLVNAVPQLKDIANVKGEQVVNIGSQDMNDNVWLTLAKKINTDCDKTDGFVITHGTDTMEETAYFLDLTVKCDKPVVMVGAMRPSTSMSADGPFNLYNAVVTAADKASANRGVLVVMNDTVLDGRDVTKTNTTDVATFKSVNYGPLGYIHNGKIDYQRTPARKHTSDTPFDVSKLNELPKVGIVYNYANASDLPAKALVDAGYDGIVSAGVGNGNLYKSVFDTLATAAKTGTAVVRSSRVPTGATTQDAEVDDAKYGFVASGTLNPQKARVLLQLALTQTKDPQQIQQIFNQY
